The values below come from article PMC3460915, “Identification, Characterization and Application of a G-Quadruplex Structured DNA Aptamer against Cancer Biomarker Protein Anterior Gradient Homolog 2”.

The target in data set [1] is GST (on GSH-Sepharose beads) (UniProt P08515 1-218). Description: flow cytometry bead binding; 1x PBS (137 mM NaCl, 2.7 mM KCl, 10 mM Na2HPO4, 2.0 mM KH2PO4), pH 7.4, 37 C, 45 min, 200 uL; K+ varied in Fig 4. The settings on record: protein: recombinant; chain copies: 2; label: FAM.
GST (on GSH-Sepharose beads), sequence (P08515 whole entry): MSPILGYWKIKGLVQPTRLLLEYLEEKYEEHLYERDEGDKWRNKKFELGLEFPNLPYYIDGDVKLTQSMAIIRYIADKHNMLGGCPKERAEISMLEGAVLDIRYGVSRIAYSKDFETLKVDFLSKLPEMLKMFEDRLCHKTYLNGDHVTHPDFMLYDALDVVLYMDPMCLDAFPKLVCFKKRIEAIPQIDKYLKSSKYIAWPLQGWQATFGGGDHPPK
Data set [2] concerns the target T1, GST-AGR2 (on GSH-Sepharose beads) (UniProt O95994 21-175). The description is as above. The settings on record: protein: recombinant, (pGEX-GST-AGR2).
Data set [3] has as its target T1, GST-AGR2 (on GSH-Sepharose beads). Description: flow cytometry bead binding; with K+; 1x PBS (137 mM NaCl, 2.7 mM KCl, 10 mM Na2HPO4, 2.0 mM KH2PO4), pH 7.4, 37 C, 45 min, 200 uL; K+ varied in Fig 4. The settings on record: protein: recombinant; (pGEX-GST-AGR2); label: 3' FAM; intramolecular parallel G4.
Another data set has as its target Streptavidin (SA beads) (UniProt P22629 25-183). Description: SA-bead flow cytometry (allosteric beacon); with AGR2; 1x PBS (137 mM NaCl, 2.7 mM KCl, 10 mM Na2HPO4, 2.0 mM KH2PO4), pH 7.4, 37 C, 45 min, 200 uL; K+ varied in Fig 4. To be noted: protein: commercial; chain copies: 4; label: 3' FAM; hairpin.
The target of data set [4] is T1, GST-AGR2 (on GSH-Sepharose beads). Description: SA-bead flow cytometry (allosteric beacon); SA beads; 100 nM AGR2 detected; 1x PBS (137 mM NaCl, 2.7 mM KCl, 10 mM Na2HPO4, 2.0 mM KH2PO4), pH 7.4, 37 C, 45 min, 200 uL; K+ varied in Fig 4. To be noted: protein: recombinant; (pGEX-GST-AGR2); label: 3' FAM; hairpin.
The next data set has as its target Thrombin (UniProt P00734;P00734 328-363;364-622). Description: SA-bead flow cytometry (allosteric beacon); 500 nM; SA beads; 1x PBS (137 mM NaCl, 2.7 mM KCl, 10 mM Na2HPO4, 2.0 mM KH2PO4), pH 7.4, 37 C, 45 min, 200 uL; K+ varied in Fig 4.

T1 sequence (O95994 21-175): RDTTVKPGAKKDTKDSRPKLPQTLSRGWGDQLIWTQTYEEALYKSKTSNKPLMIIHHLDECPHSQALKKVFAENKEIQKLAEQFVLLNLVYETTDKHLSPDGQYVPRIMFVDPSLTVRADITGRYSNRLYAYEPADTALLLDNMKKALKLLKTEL
Streptavidin (SA beads), sequence (P22629 25-183): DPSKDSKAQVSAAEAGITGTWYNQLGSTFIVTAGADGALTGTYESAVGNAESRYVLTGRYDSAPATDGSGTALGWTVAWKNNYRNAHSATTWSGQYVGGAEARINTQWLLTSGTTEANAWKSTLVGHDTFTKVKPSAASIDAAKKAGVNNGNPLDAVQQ

B1: C14B (ssDNA)
DNA: TCTCGGACGCGTGTGGTCGGGTGGGAGTTGTGGGGGGGGGTGGGAGGGTTCTTTGTTTGATCTTTCTCGCTGCCTGGCCCTAGAGTG
B1: the binding result in data set [1] is recorded as “no binding”. Besides, the Kd in data set [2] (label: FAM) was 13.1 ± 7.2 nM.

B2: C14D (ssDNA)
DNA: TCTCGGACGCGTGTGGTCGGTGCATTCTTCTGTTCTTTTAGTGTTTTGTGTTGTATGTTCTTATCCTCGCTGCCTGGCCCTAGAGTG
For B2, the Kd in data set [2] (label: FAM) worked out at 48.4 ± 15.6 nM.

B3: C14A (ssDNA)
DNA: TCTCGGACGCGTGTGGTCGGGGGGGCGGGGGTTGGGTGGTGGCTTCATTTTGTTTCACGTCGTCCTCGCTGCCTGGCCCTAGAGTG
Consider B3, for which the Kd in data set [2] (label: FAM) amounted to 20.9 ± 5.2 nM.

B4: C14B1 (structured_DNA)
DNA: CGGGTGGGAGTTGTGGGGGGGGGTGGGAGGGTT
Regarding B4, the Kd worked out at 19.1 ± 5.1 nM in data set [2] (label: 3' FAM, intramolecular parallel G4) and 6.2 ± 1.9 nM in data set [3].

B5: AGR2-aMB (structured_DNA)
DNA: CGACGCACCGATCGCAGGTTCGGGATTTTCGGGTGGGAGTTGTGGGGGGGGGTGGGAGGGTT
In the case of B5, the results for the binding result (with Streptavidin (SA beads); in data set [4]; with Thrombin) were “binds”, “binds” and “no binding”, respectively.

B6: C14B0 (ssDNA)
DNA: CGGGTGGGAGTTGTGGGGGGGGGTGGGAGGGTTCTTTGTTTGATCTTTCTCGCTGCCTGGCCCTAGAGTG
Take B6: the Kd in data set [2] (label: FAM) came to 8.5 ± 3.6 nM.

B7: C14C (ssDNA)
DNA: TCTCGGACGCGTGTGGTCGGCGTTGGGTGGGGGTGGCGGGGGTAGGGTGGTAGGTCGCTAAAATGCTCGCTGCCTGGCCCTAGAGTG
In the case of B7, the Kd in data set [2] (label: FAM) stood at 44.6 ± 7 nM.
